In paper PMC3267840:

Tests used:
Experiment in all cases: purified protein
[1] = tested on: CC(=O)NCCc1ccc(O)c(O)c1; type: biochemical, Tribolium castaneum; settings: pH 5.5, 0.1 M sodium acetate
[2] = tested on: NCCC(=O)NCCc1ccc(O)c(O)c1; type: biochemical, Tribolium castaneum; settings: pH 5.5, 0.1 M sodium acetate
[3] = tested on: NCCc1ccc(O)c(O)c1; type: biochemical, Tribolium castaneum; settings: pH 6.0, 0.1 M Mes
[4] = tested on: Oc1ccc(O)cc1; type: biochemical, Tribolium castaneum; settings: pH 5.5, 0.1 M sodium acetate (pH optimum not determined)
[5] = tested on: Oc1ccccc1O; type: biochemical, Tribolium castaneum; settings: pH 5.5, 0.1 M sodium acetate (pH optimum not determined)
[6] = substrate: CC(=O)NCCc1ccc(O)c(O)c1; type: biochemical, Tribolium castaneum; settings: pH 5.5, 0.1 M sodium acetate; remark: listed apart in the source
[7] = substrate: NCCC(=O)NCCc1ccc(O)c(O)c1; type: biochemical, Tribolium castaneum; settings: pH 5.5, 0.1 M sodium acetate; remark: listed apart in the source
[8] = substrate: NCCc1ccc(O)c(O)c1; type: biochemical, Tribolium castaneum; settings: pH 5.5, 0.1 M sodium acetate
[9] = substrate: Oc1ccc(O)cc1; type: biochemical, Tribolium castaneum; settings: pH 5.5, 0.1 M sodium acetate (pH optimum not determined); remark: listed apart in the source
[10] = substrate: Oc1ccccc1O; type: biochemical, Tribolium castaneum; settings: pH 5.5, 0.1 M sodium acetate (pH optimum not determined); remark: listed apart in the source
[11] = substrate: CC(=O)NCCc1ccc(O)c(O)c1; type: biochemical, Anopheles gambiae
[12] = substrate: NCCC(=O)NCCc1ccc(O)c(O)c1; type: biochemical, Anopheles gambiae; settings: pH 5.5, 0.1 M sodium acetate
[13] = substrate: NCCc1ccc(O)c(O)c1; type: biochemical, Anopheles gambiae
[14] = substrate: Oc1ccc(O)cc1; type: biochemical, Anopheles gambiae; settings: pH 5.5, 0.1 M sodium acetate (pH optimum not determined)
[15] = substrate: Oc1ccccc1O; type: biochemical, Anopheles gambiae; settings: pH 5.5, 0.1 M sodium acetate (pH optimum not determined)
[16] = substrate: N[C@@H](Cc1ccc(O)c(O)c1)C(=O)O; type: biochemical, Manduca sexta; settings: pH 6.0, 0.1 M Mes, 0.1 % cetylpyridinium as activator

## TcLac2B (Tribolium castaneum; G182D/T93A)
[1]
  Km: 600 µM
  kcat: 5.5 s⁻¹
  kcat/Km: 9170 M⁻¹ s⁻¹
[2]
  Km: 4000 µM
  kcat: 18.8 s⁻¹
  kcat/Km: 4700 M⁻¹ s⁻¹
[3]
  Km: 2000 µM
  kcat: 7.5 s⁻¹
  kcat/Km: 3750 M⁻¹ s⁻¹
[4]
  Km: 2000 µM
  kcat: 9.2 s⁻¹
  kcat/Km: 4600 M⁻¹ s⁻¹
[5]
  Km: 12000 µM
  kcat: 10.8 s⁻¹
  kcat/Km: 900 M⁻¹ s⁻¹

B1: TcLac2A (Tribolium castaneum) (protein)
chain: VRAPGAKKKVGPIDQSAAAASWHDFDNSDFFQSEHAVIQTHPSIGGGPRFSSGGGRKAWKHLDFRNSAAAELLKNPSLSSPDECARACREGEPPRICYYHFTLELYTVLGAACQVCTPNATNTVWSHCQCVLADGVERGILTANRMIPGPSIQVCEGDKVVIDVENHIEGNEVTLHWHGVWQRGSQYYDGVPFVTQCPIQQGNTFRYQWIAGNAGTHFWHAHTGLQKMDGLYGSVVIRQPPAKDPNSHLYDYDLTTHVMLLSDWMHEDATERFPGRLAVNTGQDPESLLINGKGQFRDPNTGFMTNTPLEVFTITPGRRYRFRMINSFASVCPAQLTIQGHDLTLIATDGEPVHPVRVNTIISFSGERYDFVINADQTPGAYWIQLRGLGECGIRRVQQLGILRYAKGPYQPSQAPPTYDYGIPQGVVLNPLDARCNEIRPDAICVSQLKNALSIDKGILREKPDVKIFLPFRFHIYTPEDLFAPNTYNRHLVAPNGDHVISLIDEISYMAPPAPLISQYDDIDPQQFCNGDNRPADCQQNCMCTHKVDIPLNAIVEIVLVDEVQQPNLSHPFHLHGYAFNVIGIGRSPDQNVKKINLKHALDLDRQGLLHRQFNLPPAKDTIAVPNNGYVVLRLRANNPGFWLFHCHFLFHIVIGMNLVLQVGTHADLPPVPPNFPTCGDHVPEINSNPNLV
[6]
  Km: 700 µM
  kcat: 2.45 s⁻¹
  kcat/Km: 3500 M⁻¹ s⁻¹
[7]
  Km: 1000 µM
  kcat: 2.75 s⁻¹
  kcat/Km: 2750 M⁻¹ s⁻¹
[8]
  Km: 800 µM
  kcat: 0.683 s⁻¹
  kcat/Km: 850 M⁻¹ s⁻¹
[9]
  Km: 1000 µM
  kcat: 3.55 s⁻¹
  kcat/Km: 3550 M⁻¹ s⁻¹
[10]
  Km: 6000 µM
  kcat: 4.03 s⁻¹
  kcat/Km: 667 M⁻¹ s⁻¹

B2: AgMCO2A (Anopheles gambiae) (protein)
chain: VRVQQHTSRRFKDESFGHDQTPAGSWWSSHLTEPPSNFYQATHGLLQTHPSVPSLKPVAGAPAAPGPSALPLSSRKSPTVSSAAALNSGFPSIANPNPRSPFRHLDFSTSATAELRRNPSLSAPDECARACREGEPPRICYYHFTVEYYTVLGAACQVCTPNATNTVWSHCQCVLADGVERGILTVNRMIPGPSIQVCENDRVVIDVENHMEGMELTIHWHGIWQRGTQYYDGVPFVTQCPIQQGNTFRYQWTGNAGTHFWHAHTGLQKLDGLYGSIVVRQPPSRDPNSHLYDFDLTTHIMLVSDWLHEDAAERYPGRLAVNTGQDPESLLINGKGQFRDPNTGFMTNTPLEIFTITPGRRYRFRMINAFASVCPAQVTIEGHALTVIATDGEPVHPAQVNTIISFSGERYDFVITADQPVGAYWIQLRGLGECGIKRAQQLAILRYARGPYQPASPPPTYDVGLPQGVVMNPLDAQCNVQRDDAICVSQLKNAKEIDRALLQDKPDVKIFLPFRFYLYRPEELFQPNTYNRFLVAPTGDHVISLIDEISYLSAPAPLLSQYDDINPEQFCNGDNRPADCGANCMCTHKVDIPLNAIVEVVLVDEVQQPNLSHPFHLHGYAYNVVGIGRSPDSNVKKINLKHALDLDRRGLLHRQYNLPPLKDTIAVPNNGYVVLRFRADNPGFWLFHCHFLFHIVIGMNLILQVGTHADLPPVPPNFPTCGDHLPPIN
[11]; pH 5.5, 0.1 M sodium acetate
  Km: 300 µM
  kcat: 1.53 s⁻¹
  kcat/Km: 5120 M⁻¹ s⁻¹
[12]
  Km: 1000 µM
  kcat: 3.65 s⁻¹
  kcat/Km: 3650 M⁻¹ s⁻¹
[13]; pH 7.5, 0.1 M sodium phosphate
  Km: 500 µM
  kcat: 0.8 s⁻¹
  kcat/Km: 1600 M⁻¹ s⁻¹
[14]
  Km: 2000 µM
  kcat: 3.82 s⁻¹
  kcat/Km: 1900 M⁻¹ s⁻¹

B3: AgMCO2B (Anopheles gambiae) (protein)
chain: VRVQQHTSRRFKDESFGHDQTPAGSWWSSHLTEPPSNFYQATHGLLQTHPSVPSLKPVAGAPAAPGPSALPLSSRKSPTVSSAAALNSGFPSIANPNPRSPFRHLDFSTSATAELRRNPSLSAPDECARACREGEPPRICYYHFTVEYYTVLGAACQVCTPNATNTVWSHCQCVLADGVERGILTVNRMIPGPSIQVCENDRVVIDVENHMEGMELTIHWHGIWQRGTQYYDGVPFVTQCPIQQGNTFRYQWTGNAGTHFWHAHTGLQKLDGLYGSIVVRQPPSRDPNSHLYDFDLTTHIMLVSDWLHEDAAERYPGRLAVNTGQDPESLLINGKGQFRDPNTGFMTNTPLEIFTITPGRRYRFRMINAFASVCPAQVTIEGHALTVIATDGEPVHPVQVNTIISFSGERYDFVITADQPVGAYWIQLRGLGECGIKRAQQLAILRYARGPYQPASPPPTYDVGLPQGVVMNPLDAVCNVPRPDAVCVSNLRNAKKADKAVLSERPDVKIFLPFRFYFYRVEELFTPNTYNKFLVAPGGDHLISLIDEISYVSPPSPMLSQINDIPPEQFCNGDNRPPDCGPNCMCTHKVDIPLNAIVEVVLVDEVQQENLSHPFHLHGHAFHVIGMGRSPDSTVKKINLRHTLDLDRRGLLNRQFNLPPLKDTIAVPNNGYVVLRFRADNPGYWLFHCHFQFHIVIGMNLVVHIGTHADLPPVPPNFPRCGNHIPPIKYN
[11]; pH 5.0, 0.1 M sodium acetate
  Km: 700 µM
  kcat: 2.12 s⁻¹
  kcat/Km: 3020 M⁻¹ s⁻¹
[12]
  Km: 2000 µM
  kcat: 6.35 s⁻¹
  kcat/Km: 3170 M⁻¹ s⁻¹
[13]; pH 5.5, 0.1 M sodium acetate
  Km: 300 µM
  kcat: 1.05 s⁻¹
  kcat/Km: 3500 M⁻¹ s⁻¹
[14]
  Km: 800 µM
  kcat: 4.2 s⁻¹
  kcat/Km: 5250 M⁻¹ s⁻¹
[15]
  Km: 4000 µM
  kcat: 2.98 s⁻¹
  kcat/Km: 750 M⁻¹ s⁻¹

B4: phenoloxidase (prophenoloxidase from M. sexta hemolymph) (Manduca sexta) (protein)
chain 1: TDAKNNLLYFFDRPNEPCFMQKGEDKVVFEIPDHYYPDKYKSLSNTLSNRFGNEATKRIPIRNITLPNLEVPMQLPYNDQFSLFVPKHRTMAAKLIDIFMGMRDVEDLQSVCSYCQLRINPYMFNYCLSVAILHRPDTKGLSIPTFAETFPDKFMDSKVFLRAREVSNVVISGSRMPVNVPINYTANTTEPEQRVAYFREDIGINLHHWHWHLVYPFDSADRSIVNKDRRGELFYYMHQQIIGRYNVERMCNGLPQVKPFSDFSAPIEEGYFPKLDSQVASRTWPPRFAGSVFRNLDRTVDQVKIDVRKLFTWRDQFLEAIQKMAIKMPNGRELPLDEVTGIDMLGNLMESSIISPNRGYYGDLHNMGHVFAAYTHDPDHRHLEQFGVMGDSATAMRDPFFYRWHRFVDDVFNIYKEKLTPYTNERLDFPGVRVSSVGIEGARPNTLRTLWQQSTVELGRGLDFTPRGSVLARFTHLQHDEFQYVIEVNNTTGGNLMGTVRIFMAPKVDDNGQPMSFNKQRRLMIELDKFSQALRPGTNTIRRRSVDSSVTIPYERTFRNQSERPGDPGTAGAAEFDFCGCGWPHHMLIPKGTAQGYPVVLFVMISNWNNDRIEQDLVGSCNDAASYCGIRDRKYPDKQAMGYPFDRKMANDAATLSDFLRPNMAVRDCSIQFSDTTVERGQQG
chain 2: ADIFDSFELLYDRPGEPMINTKGEDKVLFELTEQFLTPEYANNGLELNNRFGDEEEVSRKIILKNLDKIPEFPKAKQLPNDADFSLFLPSHQEMANEVIDVLMSVTENQLQELLSTCVYARINLNPQLFNYCYTVAIMHRRDTGKVRVQNYAEIFPAKFLDSQVFTQAREAAAVIPKTIPRTPIIIPRDYTATDLEEEHRLAYWREDLGINLHHWHWHLVYPFSASDEKIVAKDRRGELFFYMHQQIIARYNCERLCNSLKRVKKFSDWREPIPEAYYPKLDSLTSARGWPPRQAGMRWQDLKRPVDGLNVTIDDMERYRRNIEEAIATGNVILPDKSTKKLDIDMLGNMMEASVLSPNRDLYGSIHNNMHSFSAYMHDPEHRYLESFGVIADEATTMRDPFFYRVHAWVDDIFQSFKEAPHNVRPYSRSQLENPGVQVTSVAVESAGGQQNVLNTFWMQSDVNLSKGLDFSDRGPVYARFTHLNHRPFRYVIKANNTASARRTTVRIFIAPKTDERNLPWALSDQRKMFIEMDRFVVPLSAGENTITRQSTESSLTIPFEQTFRDLSIQGSDPRRSELAAFNYCGCGWPQHMLVPKGTVGGVAYQLFVMLSNYELDKIEQPDGRELSCVEASMFCGLKDKKYPDARPMGYPFDRPSNSATNIEDFSAMSNMGLQDIVIKLSDVTEPNPRNPPA
[16]
  Km: 2000 µM
  kcat: 6.02 s⁻¹
